Experimental data from US20230399394A1 (SUNSHINE GUOJIAN PHARMACEUTICAL SHANGHAI, published 2023).

Assays:
[1] = target: T1, IL-33 mutant protein D68A (human, UniProt O95760 112-270); assay: ELISA as Example 9; row D68A
T1 construct: Prokaryotic expression
T1 chain: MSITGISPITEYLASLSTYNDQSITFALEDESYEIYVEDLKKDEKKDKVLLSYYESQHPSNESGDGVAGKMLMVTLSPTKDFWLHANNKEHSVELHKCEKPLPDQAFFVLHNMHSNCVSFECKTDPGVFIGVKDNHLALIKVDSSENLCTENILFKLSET
Description: (§1) SA protein was diluted to 2 μg/mL to coat ELISA plate at 100 μL/well overnight at 4° C. The plate was washed with PBST (PBS containing 0.05% Tween20) for 3 times, and blocked with 2% BSA prepared in PBS at 200 μL/well, at room temperature for 2 h. After the plate was washed twice with PBST, IL-33-his-biotin protein was diluted to 1 μg/mL with 1% BSA prepared in PBST, and was added to ELISA plate at 100 μL/well. The plate was incubated at room temperature for 1 h, and each monoclonal antibody was diluted with 1% BSA prepared in PBST in a 3-fold gradient. The highest concentration of antibody was 10 μg/mL, and the antibody was diluted for 12 gradients. Each diluted monoclonal antibody was added to ELISA wells with 100 μL/well, and the plate was incubated at room temperature for 1 h. Each sample was added to duplicate wells in parallel. The plate was washed with PBST for 3 times, and HRP-anti human IgG Fc secondary antibody prepared with PBST was diluted at an appropriate ratio, and was added to ELISA wells at 100 μL/well. […] Each reaction solution was shaken uniformly and OD450 nm was read on a microplate reader. The data was analyzed and EC₅₀ was calculated.
(§2) Subsequently, according to the experimental method of Example 9, the affinity of the above mutant proteins to 874F7-Hu1 was determined, and IL-33 proteins (WT-1, WT-2, WT-3, and WT-4) without any mutation were set as controls.

[2] = target: T2, IL-33 mutant protein S52A (human, UniProt O95760 112-270); assay: ELISA as Example 9; row S52A against WT-2
T2 construct: Prokaryotic expression
T2 chain: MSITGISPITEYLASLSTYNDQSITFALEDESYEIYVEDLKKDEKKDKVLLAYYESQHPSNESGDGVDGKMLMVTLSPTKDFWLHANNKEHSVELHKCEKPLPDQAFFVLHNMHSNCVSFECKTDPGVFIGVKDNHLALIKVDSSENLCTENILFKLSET
Description: as §1, §2

[3] = target: T3, IL-33 mutant protein E44A (human, UniProt O95760 112-270); assay: ELISA as Example 9; row E44A
T3 construct: Prokaryotic expression
T3 chain: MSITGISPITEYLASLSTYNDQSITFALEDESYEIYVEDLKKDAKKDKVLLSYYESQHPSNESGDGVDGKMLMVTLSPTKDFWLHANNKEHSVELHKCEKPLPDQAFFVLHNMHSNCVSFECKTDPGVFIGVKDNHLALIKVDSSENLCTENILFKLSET
Description: as §1, §2

[4] = target: T4, IL-33 protein without any mutation (WT) (human, UniProt O95760 112-270); assay: ELISA as Example 9; row WT-4
T4 construct: Control of the alanine scan (four runs WT-1 to WT-4); also called WT-1; WT-2
T4 sequence: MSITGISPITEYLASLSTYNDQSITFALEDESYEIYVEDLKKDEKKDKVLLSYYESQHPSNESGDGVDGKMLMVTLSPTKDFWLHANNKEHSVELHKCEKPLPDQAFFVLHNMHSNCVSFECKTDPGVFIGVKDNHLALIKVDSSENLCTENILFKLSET
Description: as §1, §2

[5] = target: T5, IL-33 mutant protein E62A (human, UniProt O95760 112-270); assay: ELISA as Example 9; row E62A
T5 construct: Prokaryotic expression
T5 chain: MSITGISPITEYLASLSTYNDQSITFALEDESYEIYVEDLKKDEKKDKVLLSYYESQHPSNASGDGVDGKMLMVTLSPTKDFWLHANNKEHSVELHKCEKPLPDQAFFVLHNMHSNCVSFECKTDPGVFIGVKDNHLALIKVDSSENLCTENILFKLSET
Description: as §1, §2

[6] = target: T6, IL-33 mutant protein V49A (human, UniProt O95760 112-270); assay: ELISA as Example 9; row V49A against WT-2
T6 construct: Prokaryotic expression
T6 chain: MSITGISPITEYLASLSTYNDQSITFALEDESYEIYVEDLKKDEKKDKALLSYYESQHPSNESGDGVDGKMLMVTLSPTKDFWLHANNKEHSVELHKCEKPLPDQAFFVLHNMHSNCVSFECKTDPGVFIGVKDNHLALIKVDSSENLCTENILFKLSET
Description: as §1, §2

[7] = target: T7, IL-33 mutant protein S63A (human, UniProt O95760 112-270); assay: ELISA as Example 9; row S63A
T7 construct: Prokaryotic expression
T7 chain: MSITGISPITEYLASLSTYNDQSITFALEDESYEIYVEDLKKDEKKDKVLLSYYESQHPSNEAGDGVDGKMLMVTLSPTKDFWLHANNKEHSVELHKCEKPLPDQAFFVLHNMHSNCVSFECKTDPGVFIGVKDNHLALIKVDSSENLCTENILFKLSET
Description: as §1, §2

[8] = target: T8, IL-33 mutant protein Q57A (human, UniProt O95760 112-270); assay: ELISA as Example 9; row Q57A against WT-1
T8 construct: Prokaryotic expression
T8 chain: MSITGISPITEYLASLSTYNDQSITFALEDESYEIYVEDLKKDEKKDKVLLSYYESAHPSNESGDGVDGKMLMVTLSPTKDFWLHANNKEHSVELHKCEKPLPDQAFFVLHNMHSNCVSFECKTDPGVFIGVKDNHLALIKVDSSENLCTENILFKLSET
Description: as §1, §2

[9] = target: T9, IL-33 mutant protein P59A (human, UniProt O95760 112-270); assay: ELISA as Example 9; row P59A against WT-1
T9 construct: Prokaryotic expression
T9 chain: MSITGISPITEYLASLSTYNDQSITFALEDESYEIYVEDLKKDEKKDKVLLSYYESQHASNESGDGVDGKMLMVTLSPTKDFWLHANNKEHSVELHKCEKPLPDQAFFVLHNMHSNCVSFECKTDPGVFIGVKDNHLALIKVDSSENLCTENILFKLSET
Description: as §1, §2

EC50 [1]: 0.22 nM
Affinity decline ratio [2]: 14.6 fold
EC50 [3]: 0.13 nM
EC50 [4]: 0.12 nM
EC50 [5]: 0.15 nM
Affinity decline ratio [6]: > 25 fold
EC50 [7]: 0.16 nM
Affinity decline ratio [8]: 0.5 fold
Affinity decline ratio [9]: 0.5 fold
B1: 874F7-Hu1 (antibody, human IgG4 S228P, kappa)
heavy: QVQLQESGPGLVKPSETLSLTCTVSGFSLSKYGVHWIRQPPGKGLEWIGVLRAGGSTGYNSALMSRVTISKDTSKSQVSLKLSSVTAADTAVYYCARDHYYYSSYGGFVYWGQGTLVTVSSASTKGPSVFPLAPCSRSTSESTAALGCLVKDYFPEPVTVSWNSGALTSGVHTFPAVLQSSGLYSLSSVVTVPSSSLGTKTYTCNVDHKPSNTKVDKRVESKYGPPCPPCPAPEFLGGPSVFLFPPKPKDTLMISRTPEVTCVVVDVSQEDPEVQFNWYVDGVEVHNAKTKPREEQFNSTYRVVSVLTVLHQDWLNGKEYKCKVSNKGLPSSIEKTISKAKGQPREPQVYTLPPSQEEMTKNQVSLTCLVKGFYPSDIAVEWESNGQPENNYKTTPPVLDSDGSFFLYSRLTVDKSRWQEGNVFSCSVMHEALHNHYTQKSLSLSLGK
light: DIQMTQSPSSVSASVGDRVTITCLASQTIGAWLAWYQQKPGKSPKLLIYAATRLADGVPSRFSGSGSGTDFTLTISSLQPEDFATYYCQQLDSSPYTFGQGTKVEIKRTVAAPSVFIFPPSDEQLKSGTASVVCLLNNFYPREAKVQWKVDNALQSGNSQESVTEQDSKDSTYSLSSTLTLSKADYEKHKVYACEVTHQGLSSPVTKSFNRGEC
notes: also called 874F7-Hul; humanized antibody 874F7-Hu1
